Reference: PMC3064264 (The Journal of neuroscience : the official journal of the …, 2010)

Molecular target: the molecule itself
Test: non-reducing SDS-PAGE and Western blot

B1: kinesin-12 (rat) (natural protein, UniProt Q7TSP2 1-1385, looked up)
chain: MAPGCKSELRNVTNSHSNQPSNEDDAIKVFVRIRPAEEGARSADGEQSLCLSVLSQTALRLHSNPDPKTFVFDYVAGMDTTQESVFSTVAKSIVESCMSGYNGTIFAYGQTGSGKTFTMMGPSDSDNFSHNLRGVIPRSFEYLFSLIDREKEKAGAGKSFLCKCSFIEVYNEQIYDLLDSASVGLYLREHIKKGVFVVGAVEQVVASAAEAYQVLSRGWRNRRVASTSMNRESSRSHAVFTITIESMEKSSEAVNIRTSLLNLVDLAGSERQKDTHAEGMRLKEAGNINRSLSCLGQVITALVDVGNGKQRHVCYRDSKLTFLLRDSLGGNAKTAIIANVHPGSRCFGETLSTLNFAQRAKLIKNKAVVNEDTQGNVSQLQAEVKRLREQLSQFTSGQLTPGSSLARDKEKANYMEYFLEAMLFFKKSEQEKKSLVEKITQLEDLTLKKEKFIQSNKMIVKFREDQIMRLERLQKEARGSFLPEEQDRLLSELRDEIRTLREQVEHHPRLAKYAMENHSLREENRKLKLLAPVKRAHELDAQAIARLEQAFSEVSSTETNDKGLQGLPPKAIKEPSFFTSTEKLKVQLLQIQTELNNSKQEYEEFKELTRKKQLELESELQSLQKANLNLENLLEATKVCKRQEVSQLNKIHAETLKIITTPTKAYQLCSRLVPKSSPEVGSFGFLRSQSAPDNDILNEPVPPEMSEQALEAISEELRTVQEQLSVLQVKLDEEEHKNLKLQQNVDRLEHHSTQMQELFSSERSDWSKQQQDYLTQLSDLEKQLQDAQTKNDFLKCEVHDLRIVLNSADKELSLVKLEYSTFKESQEKELSQLSERHVQVQLQLDNARLENEKLLESQACLQDSYDNLQEVMKFEVDQLSKNLQNCKQENETLKSDLHNLVELFEAEKERNNKLSLQFEEDKENSSKEILKALETVRQEKQEEMARCEKQMAKVQELEESLLAAENVVSCLEKSRESDKELVTNLMNQIQELRTSAGEKSEAIDTLKQELQDISCKYTAAVADKEESKELIRRQEVDILELKETLRLRILSEDIERDMLCEDLAHATEQLNMLTEASKKHSGLLQSAQEELTKKEALIQELQHKLNQEKEEVEQKKSEYNLKMKQLEHVMGSAPEYPQSPKTPPHFQTHLAKLLETQEQEIEDGRASKMSLQHLVTKLNEDREVKNAEILRMKDQLCEMENLRLESQQLRERTWLLQTQLDDMKRQGESSSQSRPDSQQLKNEYEEEIIRERLAKNKLIEEMLKMKTDLEEVQSALDSKEKFCHRMSEEVERTRTLESRAFQEKEQLRSKLEEMYEERERTCQEMEMLRKQLEFLAEENGKLIGHQNLHQKIQYVVRLKKENIRLAEETEKLRAENVFLKERKKE
stoichiometry N: 2
